Experimental data taken from patent US20160152947A1 (BOARD OF REGENTS OF THE UNIVERSITY OF OKLAHOMA, published 2016).
Values belong to the binder of their own block, whether it stands above or below them.

Tests used:
[1] = molecular target: T1, MBP-Th-LGR4 LRR1-14 (MBP-Th-hLGR4.23-383-H6) (human, UniProt Q9BXB1 23-383); test: TR-FRET competition binding; Tb-labeled MBP-Th-LGR4 LRR1-14 (20 nM), AF488-labeled MBP-Th-RSPO2 Fu1-Fu2 (125 nM) as tracer
T1 construct: range 23-383; Produced in E. coli; Labeled with amine-reactive terbium chelate in the TR-FRET assay; unlabeled in the AlphaLISA ternary complex assay; also called MBP-Th-LGR4 ECD; LGR4 ECD; not shown: thrombin cut site (Th) linker
Description: (§1) HEK293T cells transfected with TOPFLASH firefly luciferase reporter and Renilla luciferase control plasmids were treated with the indicated concentrations of MBP-Th-RSPO Fu1-Fu2 proteins in 1:6 diluted Wnt3a conditioned media. […] (C) AlphaLISA® luminescent proximity assay (BMG Labtech GmbH, Ortenberg, Germany) for ZNRF3 ECD binding. The indicated concentrations of MBP—Th-RSPO Fu1-Fu2 proteins were incubated with 3 nM Biotin-ZNRF3 ECD. Donor and acceptor beads were at 20 μg/ml each. Data shown for panels A-C are representative of at least three independent experiments, each performed in duplicate. The error bars represent the S.E.M. of the experiment. (D, E, F) Vertical scatter plots showing the pECso, Eₘₐₓ, and pK₁ values obtained from replicate independent signaling and LGR4 binding experiments as in panels A and B. The mean values and error bars representing the S.E.M. of the replicates are denoted.
(§2) The LGR4 ECD binding abilities of the newly purified MBP-Th-RSPO Fu1-Fu2-H₆ proteins were examined in an in vitro LanthaScreen®TR-FRET competition-binding assay (Thermo Fisher Scientific Inc., Rockford, Ill.).

[2] = molecular target: T1, MBP-Th-LGR4 LRR1-14 …; test: TR-FRET competition binding; Tb-labeled MBP-Th-LGR4 LRR1-14, AF488-labeled MBP-Th-RSPO2 Fu1-Fu2 as tracer
[3] = molecular target: T1, MBP-Th-LGR4 LRR1-14 …; test: TR-FRET competition binding to LGR4 ECD
Description: as §1, §2

[4] = molecular target: T1, MBP-Th-LGR4 LRR1-14 …; test: AlphaLISA ternary complex control assay

pKI [1]: 7.31
B1: MBP-Th-RSPO3 Fu1-Fu2-H6 (MBP-Th-RSPO3.22-146-H6) (ligand)
chain: QNASRGRRQRRMHPNVSQGCQGGCATCSDYNGCLSCKPRLFFALERIGMKQIGVCLSSCPSGYYGTRYPDINKCTKCKADCDTCFNKNFCTKCKSGFYLHLGKCLDNCPEGLEANNHTMECVSIVHHHHHH
notes: Produced in E. coli; also called pAP355; not shown: thrombin cut site (Th) linker

pKI [2]: 8.28
pKI [1]: 8.12
fold stronger affinity than RSPO2 and RSPO3 [3]: ~7 fold
B2: MBP-Th-RSPO4 Fu1-Fu2-H6 (MBP-Th-RSPO4.21-138-H6), produced in E. coli (ligand)
chain: NRRKKQVGTGLGGNCTGCIICSEENGCSTCQQRLFLFIRREGIRQYGKCLHDCPPGYFGIRGQEVNRCKKCGATCESCFSQDFCIRCKRQFYLYKGKCLPTCPPGTLAHQNTRECQGEHHHHHH
notes: Bacterially produced; also called MBP-Th-RSPO4 (E. coli); pAP356; not shown: thrombin cut site (Th) linker

pKI [1]: 7.26
B3: MBP-Th-RSPO2 Fu1-Fu2-H6 (MBP-Th-RSPO2.22-144-H6) (ligand)
chain: QGNRWRRSKRASYVSNPICKGCLSCSKDNGCSRCQQKLFFFLRREGMRQYGECLHSCPSGYYGHRAPDMNRCARCRIENCDSCFSKDFCTKCKVGFYLHRGRCFDECPDGFAPLEETMECVEGHHHHHH
notes: Produced in E. coli; also called pAC018; not shown: thrombin cut site (Th) linker

pKI [1]: 6.9
B4: MBP-Th-RSPO1 Fu1-Fu2-H6 (ligand)
chain: SRGIKGKRQRRISAEGSQACAKGCELCSEVNGCLKCSPKLFILLERNDIRQVGVCLPSCPPGYFDARNPDMNKCIKCKIEHCEACFSHNFCTKCKEGLYLHKGRCYPACPEGSSAANGTMECSSPHHHHHH
notes: Produced in E. coli; also called MBP-Th-hRSPO1 Fu1-Fu2-H6; not shown: thrombin cut site (Th) linker

pKI [2]: 8.23
B5: commercial full-length RSPO4 produced in CHO cells (R&D Systems, catalog number 4575-RS-025/CF) (ligand, UniProt Q2I0M5 20-234, looked up)
chain: LNRRKKQVGTGLGGNCTGCIICSEENGCSTCQQRLFLFIRREGIRQYGKCLHDCPPGYFGIRGQEVNRCKKCGATCESCFSQDFCIRCKRQFYLYKGKCLPTCPPGTLAHQNTRECQGECELGPWGGWSPCTHNGKTCGSAWGLESRVREAGRAGHEEAATCQVLSESRKCPIQRPCPGERSPGQKKGRKDRRPRKDRKLDRRLDVRPRQPGLQP
notes: mature; Bought protein; also called R&D RSPO4 (CHO)

binding result [4]: no binding (tested: 5 nM each)
B6: Biotin-ZNRF3 ECD (Avi tag-ZNRF3.56-216-H6, MBP removed by thrombin) (receptor, human)
chain: KETAFVEVVLFESSPSGDYTTYTTGLTGRFSRAGATLSAEGEIVQMHPLGLCNNNDEEDLYEYGWVGVVKLEQPELDPKPCLTVLGKAKRAVQRGATAVIFDVSENPEAIDQLNQGSEDPLKRPVVYVKGADAIKLMNIVNKQKVARARIQHRPPRQPTEYHHHHHH
modifications: biotin on the N-terminal Avi tag (site-specific in vivo biotinylation by BirA)
notes: range 56-216; Expressed in E. coli as MBP-Th-Avi tag-ZNRF3.56-216-H6; also called biotinylated ZNRF3 ECD; B-Z; not shown: Avi tag (and residues left after thrombin cleavage)
